Results reported in the DeepSol protein solubility set.

Experiment: soluble on expression in E. coli; label from the status in PepcDB or PDB records

Sequence | soluble on expression in E. coli
MSLQDIKDITLRQFGTGVSNLNEVAQKVKEDLGFTLTMTALDSDAVTQRAATQPDSFDIADIEYWICKKVWPTGNLQAMDTSKIKNYDKIVGIFRSGKLTPESTIAQGTAPHTVGFTSGPGGTDFVQEESGWMTLIPTIYNADTLGIRPDLIGRPIESWTELLNPEFKGKASILDISSIGIMDAAMVCEAMGEITYGDKGNMTREEIDRTMAIFTEAKKAGQFRAFWKTFDESVNLMASGEVVIQSMWSPAITAVKSRGIPCVYQPLREGYRSWGGGIGLSARLDGLALEAAYEYINWYLSGWVGGFLMRQGYYSAVPETSKEFMSENEWGYWFEGKPATDTITNPQGQAMAQAGEVRDGGSFEERMGRVACWNSVMDENQYMVRKWNEFIAAEGHHHHHH | not soluble
MSLQIDEVSKKLNISKSMIRYYEEKGLINISRNQNNYREFNQTVYTTLKLIKDLKRLNLSLEEIKYIVNLFNKPTSKECNIQSTKYLDRIIKDYKRSINEQINILNRLEQVKELSQDMKFEENKTEILNMLAGVKEYDEGHHHHHH | not soluble
MSLQIKFWPQDLKLAHTWTIASSVTSGSDVTSVGIVQLTDRDGTVGLGEAAPARRYNESTPGSLDFIAKVDATKLSFDNIEASMKYVESLASGQFAAKSAINVALLDGAARKAGKPIYDLLGLGFRNNHHVTSFSIGIDKADVIRKKVLAAEQYPVLKLKVGAADDKANLAALREAAPQKWVRVDANEGWKTKEHALEMIEWLAQDKFIQYIEQPMPADSNPKDIAWLKARSPLPLFGDESYHTAKDVDHCAECYHGVNVKLCKTGGISNAYEALQVARKAGLKTMIGCMIETSILISAAAHLAELCDYLDIDGNLLTTNDPYLGVTAEKGLLSFASAPEKLGLRVRAKEGHHHHHH | soluble
MSLQIKVSQFGLNLAHAWATAASSAKKSRIVTFVKLTSSDGAFGFGESAPSSRYGETLETVTAFLAKIDPKQLSFDDVPGSMAYLDKLSSGDFAAKAAVNIALWDGAGKKARKPIYDLLGLGFTENKHITSYTIGIDAPEIIRQKVLEAEQYPVLKLKVGDKNDRETMAILRSIAPAKTVRIDGNEGWKTKEEALKNIEWFAQDKNIEFVEQPMPADSNPKDLAWLKERSPLPLYADESFFAVADVSLCVDCFHGVNVKLVKTAGISGAYEALQAAKKAGLKRMIGCMVESSVLIGAGAHLAELADHLDIDTNLLITNDPFQGTTAEKGIISFAKASEPCGLRVKATPSFVMEGHHHHHH | soluble
MSLQILTRKMPGQFKVGCMDLMIEEAAGSGLFMRLFFPTDSEITGPSSLPVWIPRPEYAYGVGEYLGHSPHQMDLISSLVIGDKRVDCIDNAQLSTKSDKWPVLVFSHGLGGSRTFYSTYCTSLASHGYVVAAVEHRDSSACWTYKLVEKNGTLVEKPMKIKLVDRNDKDQFKIRNEQVGKRAEECAKAVKILEQLDSGNVKDKVIIGNNANLEFFKNKLLTTTASIIGHSFGGATSIASSSSDFQKAIVLDGWMYPLDQNQQEQAKQPIMFLNVGDWQWNENLEVMRKILPNNEGNILLTLSGAVHQSFTDFPFVFPNWLAKQFGVHGPTEPYLCMQSAIELTLSFLKDGKEGHHHHHH | not soluble
MSLQKEEILKLPISYKNIRLIRLNLPQKEQFVSGIGVRNSRKALIIEWEDDNGTKGYGECSCRPDPYYSDEFIEGAIALVNQFIVPFLKQNQTFGDLLKLLDKIRGWNFTKAAVEMAALQVIEQNTGKSPFQLLQNKPLAHVPVGISLGLYTDVDRMKKVVKNALETGYKRLKFKISPKVRVDFFEEINPMLFEADTFVSFDANGSFGENDLDIFHYFANTYQSMIEQPFAPTRFDILSKVKKEHPEIYICYDEEIKSIGDLIKLHHLGMLDEVNLKVGRVGGVMKSIEIIQYCAEHNIPCWIGGMFETGIGRTLNLRMASYLPNARAHDLSPSDRYFLEDIVQPNVQMNNGLVNMESLKNCTIQPNLIDKYTIDQKTLTRICEGHHHHHH | soluble
MSLQKLAFSYVRFSSLKQRHGDSLKRQTDMVANWLLANPEYKLSGETSYQDLGKSGFSGAHLDNAFGRLLAAIENGAIPKGSAILIEQIDRAGRMEPMEMLPLLSRIVNAGVDLVTLDDGITYDRASVNSNHLFLLVAKVQQAHQYSDSLSRRLRAAYQTKRAKAAAGEGATRRMPLWIRDGKLRDDIAPFVTQVFEDYAAGIGERRILGRLKGQHPDFETISPSTFRRWLRNPVAVGRWNDIEDVWPAVVSKELWFRVQKRLTDGVKPKAASSKYLLSGLVKCARCGKNYCVGGQKGALTMLCVSRHRFGSGAGGCTNKRSIPYAVFDFIRSQTAHAALVRASQSQNLTASEKRQIEIDGELIELRKQSSHAAEGLVRYGMVKEITDVLDRVTDQIDRLEKERVMLQAVPAPATLDDMIDVENDLLDDDIVKLNALLQGVGYEMVVDDRTIVVCEASVFSTLQSQTYRYIGADRVTGTYKVTANDEVLHHLPNLDSKVQQDEYAEFLKKEARYESGELKRDEFRFNLETGEINREGHHHHHH | not soluble
MSLQKNGYRIQFTSSRIRDLMYRTTFDPKKMDGDIILNLSLIDKKDLDDVLGIFKMVISSGLSVTPYVKVISEGESIGDMTIEKGKVGIGTVCSITIDGVLLKAGIPVNPKLGGVVQIRNGIPVRFTDVLTYVSTTVDPLEILMSQGITSVSEMLRTGSGKVLANLREAPMVARDEIESNLSDLLDAGFSGILEVGEPNTRVLDVPIERDHLGIVVIGGTNPMAVVQEYGIPIDTSAMSRLISFKEMSRIEDLVEGHHHHHH | soluble
MSLQKNNLHIIIAEDDFDDADMICETFNQNPNFGKVSLVANGEELLNYLKNASNESPDVILTDINMPIVDGIEALQQILNNSDLKNIPCFVYSTSINPSYKEKCDDLGVKAYLIKPYSFEAFAEIPKTILSIIQAEGHHHHHH | soluble
MSLQLRLALNQIDSTVGDIAGNAEAILRWTRHSAEQGAHLVAFPEMALTGYPVEDLALRSSFVEASRTALRELAARLAEEGFGELPVLVGYLDRSESAQPKYGQPAGAPRNAAAVLHRGRVALTFAKHHLPNYGVFDEFRYFVPGDTMPIVRLHGVDIALAICEDLWQDGGRVPAARSAGAGLLLSVNASPYERDKDDTRLELVRKRAQEAGCTTAYLAMIGGQDELVFDGDSIVVDRDGEVVARAPQFSEGCVVLDLDLPAAEAEPPTGVVDDGLRIDRLVISEEPLPAYEAELAGGYADRLDADEEVYSALVVGLRAYVAKNGFRSVLIGLSGGIDSALVAAIACDALGAQNVYGVSMPSKYSSDHSKGDAAELARRTGLNFRTVSIEPMFDAYMASLGLTGLAEENLQSRLRGTTLMAISNQEGHIVLAPGNKSELAVGYSTLYGDSVGAYGPIKDVYKTSIFRLAEWRNRAAAERGQTPPIPEASITKPPSAELRPGQVDTDSLPDYPVLDAILELYVDRDTGADAIVAAGYDRELVVKTLRMVDTAEYKRRQYPPGTKISAKGFGKDRRLPITNRWREGHHHHHH | soluble
MSLQNAYWLTNVRLETGYKFNNEVVTGTETALHHLLIQDGKIEKIVLADVPLQTEYETKDAKELLVLPSFVENHFHLDKTKLGGPWEACTPVKNIIERLELEQQELPILAQTTGERAELLLRNILNAGSTHIRTHVNIDPYIGLKNLESVRQTLENMKDAFTYEIVAFPQHGLLRTEAHSLMREAMKMGATLVGGVDPATVDNNIEKSLFDMMEIAVEANADVDLHLHDAGHLGIYTIKKLAQYTEEASWDGRVAVSHAFSLGDVSKEEGADMADLLAERGMSIITTVPINRNMPPVPLLTEKGVPISLGCDSMFDSWGPFGNADIFERVGRLAEKYRWMDEKSLASSLAYITGGKTPLDQEGNQVWPKVGDKADFVFLQATCSAEAIARRAKRPAVMRDGKIVAGSLQHVQGVLIEGHHHHHH | soluble
MSLQPVPDAGPWGDYLCDSPWALINSSIYAMKEIEPEPDFILWTGDDTPHVPDEKLGEAAVLEIVERLTKLIREVFPDTKVYAALGNHDFHPKNQFPAGSNNIYNQIAELWKPWLSNESIALFKKGAFYCEKLPGPSGAGRIVVLNTNLYYTSNALTADMADPGQQFQWLEDVLTDASKAGDMVYIVGHVPPGFFEKTQNKAWFREGFNEKYLKVVRKHHRVIAGQFFGHHHTDSFRMLYDDAGVPISAMFITPGVTPWKTTLPGVVNGANNPAIRVFEYDRATLSLKDMVTYFMNLSQANAQGTPRWELEYQLTEAYGVPDASAHSMHTVLDRIAGDQSTLQRYYVYNSVSEGHHHHHH | soluble
